Assay results reported in article PMC8155463.

Molecular target: ZF-AS, fusion protein containing ZF5.3 and human argininosuccinate synthetase (human)
Experiment: SEC

Question: Which stoichiometry N does the source give for “ZF-AS, fusion protein containing ZF5.3 and human argininosuccinate synthetase (enzyme)” here?
Answer: 4
